From publication PMC7488360 (Acta Pharmaceutica Sinica. B, 2020)

Tests used:
HuR (human antigen R) = HuR (human antigen R) (Homo sapiens, UniProt Q15717); assay: SPR; type: binding
HuR RRM12 = HuR RRM12 (UniProt Q15717 18-186); assay: EMSA
HuR full-length = HuR full-length (UniProt Q15717 1-326); assay: EMSA
HuR full-length, sequence (Q15717 whole entry): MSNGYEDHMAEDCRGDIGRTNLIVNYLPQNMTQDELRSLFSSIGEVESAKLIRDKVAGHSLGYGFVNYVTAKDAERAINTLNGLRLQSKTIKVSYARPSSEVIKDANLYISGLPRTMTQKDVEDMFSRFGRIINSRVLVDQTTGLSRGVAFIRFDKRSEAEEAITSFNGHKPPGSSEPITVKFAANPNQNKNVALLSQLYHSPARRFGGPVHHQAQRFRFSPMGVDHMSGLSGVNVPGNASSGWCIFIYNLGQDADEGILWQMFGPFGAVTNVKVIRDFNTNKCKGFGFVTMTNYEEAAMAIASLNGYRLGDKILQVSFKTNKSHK

HuR (human antigen R), sequence (Q15717 18-186): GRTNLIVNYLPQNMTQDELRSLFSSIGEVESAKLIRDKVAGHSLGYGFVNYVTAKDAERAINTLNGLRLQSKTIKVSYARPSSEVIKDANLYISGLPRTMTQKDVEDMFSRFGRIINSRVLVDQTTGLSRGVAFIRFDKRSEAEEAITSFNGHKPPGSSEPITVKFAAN
HuR RRM12, sequence (Q15717 18-186): as above

| Kd (HuR (human antigen R)) [nM] | Molecule | binding result (HuR RRM12) | binding result (HuR full-length) |
| --- | --- | --- | --- |
| 2500 | CC1=NN(c2ccc(C)c(C)c2)C(=O)/C1=N\Nc1cccc(-c2cccc(C(=O)O)c2)c1O [eltrombopag] |  |  |
|  | AAUUCUACAUACUAAAUCUCUCUCCUUUUUUAAUUUUAAUAUUUG (ssRNA) [AREVegf-a] | binds | binds |
